# Where a SMILES comes first, the peptide text is derived from it.
# Experiments:
# A549 cells [1] = assay: CyQuant cytotoxicity and proliferation assay; assay type: cell-based, human; settings: 48 hours
# Experimental: Cells were seeded at 2.5×10^4 cells/well and grown in 96 well plates in the presence of 0−1.5×10^−5 M cypate conjugated peptides for 24 or 48 hours. Cell proliferation was measured using the CyQuant proliferation assay from Molecular Probes (Eugene, Oreg.) per the manufacturer's protocol. Briefly, after incubation the microplate was inverted to remove the media and frozen at −70° C. overnight. The microplate was thawed at room temperature and 200 μL of the CyQuant GR dye/cell-lysis buffer was added to each well. […]
# Because the Cyquant assay is based on the adherence of a dye to nucleic acids, the assay is a measure of both proliferative and cytotoxic effects.
# [2] = Absorption and emission spectral properties in 20% aqueous DMSO; assay type: physicochemical
# Experimental: The spectral properties of cypate and the cypate-peptide conjugates were determined in 20% aqueous DMSO, which solubilizes all the compounds. […] Absorbance measurements were performed with a Beckman Coulter DU 640 spectrophotometer. The fluorescence spectra were recorded on Fluorolog-3 fluorometer (HORIBA Jobin Yvon Inc., Edison, N.J.). To prepare the stock solutions, a high precision analytical balance was used to weigh >2 mg of each compound, which was dissolved in DMSO. The DMSO solutions were then diluted with water to obtain a final solution of 20% aqueous DMSO. An aliquot (known volume) of the solution was transferred to a cuvette with 1 μL precision micropipettes and diluted with 20% aqueous DMSO solvent mixture to give a working solution that absorbs at <1.0 absorbance unit. Aliquots of the working solution were diluted with 20% aqueous DMSO and used to determine the molar absorptivity of each compound. For fluorescence measurements, probe solutions with 0.1 absorbance units were used to minimize inner filter effects.
# Previous studies have shown that this solvent mixture boosts fluorescence intensity and is well tolerated by rodents. Additionally, the dyes and their peptide conjugates are soluble in this solvent mixture, providing a common medium for spectral measurements.
# Absorbance spectra were measured on a Beckman Coulter DU 640 UV-Visible spectrophotometer. Fluorescence spectra were recorded on a HORIBA Jobin Yvon Fluorolog-3 fluorometer. Stock solutions (1.0 mM) of the conjugates were prepared by dissolving each sample in 80% aqueous DMSO. UV-Vis and fluorescence measurements were carried out by adding 5.0 μL of the stock solutions via a micropipette into 3 mL of 20% aqueous DMSO in a quartz cuvette.
# A549 tumor = assay: In vivo fluorescence optical imaging and ex vivo organ distribution in A549 tumor-bearing nude mice; settings: for blocking of Cyp-GRD uptake in the tumor by co-injection: equimolar, 0.3 μmol/kg body weight
# Experimental: All in vivo studies were performed in compliance with the Washington University in St Louis Animal Study Committee's requirements for the care and use of laboratory animals in research. Nude mice (18-22 g) were anesthetized with xylazine/ketamine cocktail via intraperitoneal injection and placed in a supine position. The mice were injected subcutaneously with A549 cells (1×10^6) in the lower back of the mice. Tumor masses were palpable at 5-7 days post implant, which reached 5 mm in 10-15 days. Prior to injection of the probe, the mice were anesthetized as described above. A 29-gauge needle was used to inject the probes into the mouse via the lateral tail vein. The molecular probe (100 μL) was injected via the lateral tail vein at 0.3 μmol per kg of body weight. […] [SEQ ID NO:1] were constituted in a vial, and doses of 0.3 μmol per kg of body weight were injected into the A549 tumor-bearing mice.
# A non-invasive in vivo continuous wave fluorescence imaging apparatus was used to visualize the distribution and preferential tissue uptake of the cypate-peptide molecular beacons in the nude mice (Achilefu (2004) Technol. Cancer Res. Treat. 3:393-409, incorporated herein by reference). Light from two laser diodes of nominal wavelength 780 nm and nominal power of 50 mW was launched into a fiber optic bundle. Two laser diodes were used to produce as much uniform illumination of the whole animal or organ parts as possible. The nominal 50 mW of incident power was reduced to about 44 mW at the output of the fiber optic bundle. A de-focusing lens in position after the bundle expanded the beam such that nearly the whole animal was illuminated. A Photometrics CCD camera (16 bit, 1024×1024 pixel, back illuminated, thermoelectric Peltier cooled with forced air) was used to capture the emitted photons. An interference filter (830 nm) was mounted in front of the CCD camera input lens such that only emitted fluorescent light from the contrast agent was imaged. Real-time acquisition, display and data processing software (WinView/32) was used to obtain the optical image. The samples were dissolved in 20% aqueous DMSO and animals were injected with doses of 0.3 μmol/kg body weight via the lateral tail vein. Injected volumes were 100 μL for each mouse. Data analysis consisted of subtracting (pixel by pixel) the pre-injection image from the post injection images, and displaying the false color results. Integration of the relative fluorescence intensities of tumor vs. surrounding tissues indicated the extent of selective uptake of the contrast agent. At the completion of the study, the mice were euthanized and some organ parts were excised and rinsed with water. The tissues were placed under the CCD camera and the fluorescence emission from each organ was measured after excitation with the 780 nm laser sources. Tissue parts, instead of whole organs, were used to minimize problems associated with depth-dependent non-linear fluorescence emission. A statistical program in the WinView package was used to estimate the mean fluorescence intensity per organ part.
# In vivo optical imaging studies using the cypate-peptide optical probes were performed and analyzed as described above in Example 1. […]
# [3] = target: T1, purified human αvβ3 integrin protein (Homo sapiens, UniProt P05106+P06756); assay: Competitive αvβ3 integrin receptor binding assay with 125I-echistatin tracer (Example 2); settings: Table 3, read-out: IC50
# T1 construct: purchased Chemicon International, Inc. (Temecula, Calif.)
# Experimental: The binding affinities were measured based on the competitive binding between purified αvβ3 integrin (ABI) and peptide ligands. Echistatin is a polypeptide that binds irreversibly with high affinity and specificity to ABI. ^125I-echistatin was used as a tracer in ABI binding assays.
# Receptor binding assays were performed by using purified human αvβ3 integrin protein from Chemicon International, Inc. (Temecula, Calif.). Assays were carried out using the Millipore Duropore membrane 96-well plates and the Millipore MultiScreen system (Bedford, Mass.). The 96-well membrane plate was blocked with 0.1% Polythylenimine blocking solution overnight at 4° C. ^125I-echistatin (50 nmol/L) was added to the binding buffer (50 mM Tris-HCl, pH 7.4, 100 mM NaCl, 2 mM CaCl2, 1 mM MgCl2, 1 mM MnCl2, 1% BSA) containing integrin protein (50 ng per well in 96-well membrane plate) and ligands in a total volume of 200 μL per well. The concentration range of ligand was between 0.01 μM and 100 μM. The mixtures were incubated for 2 h at room temperature, the ABI was then filtered by centrifugation at 1500 g and washed three times with 0.20 mL of ice-cold binding buffer. The filters containing radioactivity bound ABI were removed using a punch apparatus and counted using a Packard Cobra II Auto-gamma counter (Meriden, Conn.). […] Radiolabeling of ^125I-echistatin (Amersham Biosciences, Piscataway, N.J.) was carried out in a mixture of 0.25% BSA, 5.0% lactose, 0.21% citric acid and aprotinin (0.9 TIU/ml).
# A549 cells [4] = assay: Cell uptake, internalization and blocking of cypate-peptide conjugates (Example 3); assay type: cell-based, human
# Experimental: The ABI-positive cells were incubated with cypate or cypate-peptide conjugates at 37° C. for different time points. A549 cells were grown as detailed above. The human glioblastoma cell line, U87, and the human embryonic kidney cell line, HEK, were purchased from ATTC. U87 and HEK cells were maintained in minimum essential medium (MEM) with 2 mM L-glutamine and Earle's BSS adjusted to contain 1.5 g/L sodium bicarbonate, 0.1 mM nonessential amino acids, and 1.0 mM sodium pyruvate, with 10% fetal calf serum, 100 units/mL penicillin, and 100 units/mL streptomycin. Cells were grown on Lab-Tek slides. The medium was replaced and cells were incubated for various times up to 4 h at 37° C. in the presence of 1 μM of the dye conjugated peptides. For fluorescence microscopy, cells were visualized with an Olympus BX61W1 microscope using 775/50 excitation, 845/55 emission. For subcellular localization studies, 25 nM mitotracker green or 50 nM lysotracker red from Molecular Probes (Eugene, Oreg.) was added during the last 15 min or 60 min of incubation, respectively. […] Relative fluorescence was determined for five different areas of each experimental condition using the Slidebook software, and the results were averaged. The average relative fluorescence for each condition was normalized to cells treated with Cyp-GRD peptide.
# A549 and A427 cells = assay: Cellular internalization of cyclic cypate-RGD conjugates (Example 2); assay type: cell-based; settings: 1 μM, 1 h, 37° C.
# Experimental: A549 and A427 cells were purchased from ATCC and grown in […] tissue culture flasks or on Lab-Tek chambered slides in Ham's F12K medium with 2 mM L-glutamine supplemented with 1.5 g/L sodium bicarbonate, 10% fetal calf serum, 100 units/ml penicillin and 100 units/mL streptomycin.
# Cells were grown to confluence on LabTek microscope slides. After washing with PBS, the cells were incubated with 1 μM of the target compounds for 1 h at 37° C. The medium was removed and the cells washed with PBS. The slides were mounted with anti-fading mounting medium. Cells were visualized with an Olympus microscope system (FV 1000) using 755 excitation and 845 nm emission filters.
smiles,measurement,setting,value
"CC1(C)C(/C=C/C=C/C=C/C=C2/N(CCC(=O)NCC(=O)N[C@@H](CCCNC(=N)N)C(=O)NCC(=O)N[C@@H](CC(=O)O)C(=O)N[C@@H](CO)C(=O)N3CCC[C@H]3C(=O)N[C@@H](CCCCN)C(=O)O)c3ccc4ccccc4c3C2(C)C)=[N+](CCC(=O)O)c2ccc3ccccc3c21 [Cyp-RGD, Cypate-GRGDSPK]","cytotoxicity (CyQuant), longer treatment",A549 cells [1],some cytotoxicity
same,^abεmax,[2],"213,726 cm^−1Mol^−1"
same,^abλmax,[2],789 nm
same,^emλmax,[2],811 nm
same,uptake / retention in A549 tumor,"A549 tumor; 0.3 μmol per kg via lateral tail vein, fluorescence imaging",preferentially localized
same,accumulation / retention in nontarget tissues,A549 tumor; 24 h post injection,primarily retained in the liver and the kidneys
same,tumor uptake compared among the cypate-peptide conjugates,A549 tumor; 24 h post injection,low
same,IC50,[3],0.328 µM
same,internalization / fluorescence intensity in cells,"A549 cells [4]; 1 μM, 4 h, 37° C.",higher intensity than the linear GRD compound
"CC(C)C[C@@H]1NC(=O)[C@H](CC(=O)O)NC(=O)CNC(=O)[C@H](CCCNC(=N)N)NC(=O)[C@@H](NC(=O)CCN2C(=CC=CC=CC=CC3=[N+](CCC(=O)O)c4ccc5ccccc5c4C3(C)C)C(C)(C)c3c2ccc2ccccc32)CSSC[C@@H](C(N)=O)NC1=O [Cypate-cyclo(CRGDLC)-NH2] (HELM PEPTIDE1{[CC1(C)C(/C=C/C=C/C=C/C=C2/N(CCC(=O)[*:2])c3ccc4ccccc4c3C2(C)C)=[N+](CCC(=O)O)c2ccc3ccccc3c21].C.R.G.D.L.C.[am]}$PEPTIDE1,PEPTIDE1,2:R3-7:R3$$$V2.0)",cellular internalization,A549 and A427 cells,internalized by the cells much better than some of the other compounds
"CC(C)[C@@H]1NC(=O)[C@@H](Cc2ccccc2)NC(=O)[C@H](CC(=O)O)NC(=O)CNC(=O)[C@H](CCCNC(=N)N)NC1=O [cyclo[RGDfV], reference compound]",displacement of cypate-GRD from A549 tumor,A549 tumor; blocking peptide given 24 h postinjection of cypate-GRD,unable to displace
same,blocking of Cyp-GRD uptake in the tumor by co-injection,A549 tumor; 24 h post injection,blocked the uptake
same,blocking of Cyp-GRD uptake in the tumor by co-injection,"A549 tumor; 24 h post injection, listed as cyclo(RGDfV)",significantly blocked
same,blocking of cypate-GRD uptake / internalization in A549 cells,"A549 cells [4]; pretreatment 15 min at 37° C., antibodies 10 μg/ml",blocked the uptake
